In publication doi:10.1101/2025.03.29.646087:

Target: SARS-CoV-2 nsp15 with H234A mutation and a N-terminal Strep-Tag II (SARS-CoV-2)
Assay: cryo-EM structure

## SARS-CoV-2 nsp15 with H234A mutation and a N-terminal Strep-Tag II (enzyme)
  stoichiometry N: 6
